Measurements taken from patent US20250027068.

Biological target: pooled human IgG (human IgG1, 2, 3 and 4)

Protein | Enzyme Activity Endpoint Assay (purified): Fab′2 | Enzyme Activity Endpoint Assay (purified): Fc | Enzyme Activity Endpoint Assay (purified): IgG | Enzyme Activity Endpoint Assay (purified): scIgG
PRT-605 (protein) MQITSVWTKGVTPLTPEQFRYNNEDVIHAPYLAHQGWYDITKAFDGKDNLLCGAATAGNMLHWWFEQNKTEIEAYLSKYGDTQKIIFNNQELFDLKAAIDTKDSQTNSQLFNYFRDKAFPNLSARQLGVMPDLVLDMFINGYYLNVFKTQSTDVNRPYQDKDKRGGIFDAVFTRGDQTTLLTARHDLKNKGLNDISTIIKQELTEGRALALSHTYANVSISHVINLWGADFNAEGNLEAIYVTDSDANASIGMKKYFVGINAHGHVAISAKKIEGENIGAQVLGLFTLSSGKEIWQKLSLEHHHHHH | 617 ng/µL | 357 ng/µL | 100 ng/µL | 157 ng/µL
PRT-684 (protein) MQITSVWTKGVTPLTPEQFTNNNEDVIHAPYLANQGWYDITKTFNGKDNLLCGAATAGNMLHWWFDQNKEEIEAYLKKHPEKQKIIFNNQELFDLKKAIDTKDSQTNSALFNYFRDKAFPNLSARQLGVMPDLVLDMFINGYYLNVFKTQSTDVNRPYQTKDKRGGIFDAVFTRGDQTTLLTARHDLKNKGLNEISDIIKQELTEGKALALSHTYANVSISHVINLWGADFNAEGNLIAIYVTDSDANASIGMKKYFVGVNSHGKVAISAKKIEGENIGAQVLGLFTLSSGQDIWQKLSLEHHHHHH | 1060 ng/µL | 542 ng/µL | 0 ng/µL | 0 ng/µL
PRT-641 (protein) MQITSVWTKGVTPLTPEQFRYNNEDVIHAPYLAHQGWYDITKTMNGKDDLLCGAATAGNMLHWWFDQNKTEIEAYLSKHPEKQKIIFNNQELFDLKAAIDTKDSQTNSQLFNYFRDKAFPNLSARQRGVMPDLVLDMFINGYYLNVFKTQSTDVNRPYQDKDKRGGIFDAVFTRGDQTTLLTARHDLKNKGLNDISTIIKQELTEGRALALSHTYANVSISHVINLWGADFNAEGNLEAIYVTDSDARENIGMKKYFVGINAHGHVAISAKKIEGENIGAQVLGLFTLSSGKDIWQKLSLEHHHHHH | 975 ng/µL | 336 ng/µL | 0 ng/µL | 0 ng/µL
PRT-690 (protein) MQITSVWTKGVTPPTPEQFRYNNEDVIHAPYLANQGWYDITKTFNGKDNLLCGAATAGNMLHWWFDQNKTEIEAYLSKYPEKQKIIFNNQELFDLRAAINTKDSQTNSQLFNYFRDKAFPNLSARQLGVMPDLVLDMFINGYYLNVFKTQSTDVNRPYQDKDKRGGIFDAVFNRGDQTTLLTARHDLKNKTLNDISTLIKQELSSGKALALSHTYANVSISHVINLWGADFNAEGNLEAIYVTDSDANSNIGMKKYKVGVNAHGKVAISAKKIEGENIGAQVLGLFTLSSGKDIWQKLSLEHHHHHH | 966 ng/µL | 482 ng/µL | 0 ng/µL | 0 ng/µL
PRT-694 (protein) MTITSVWTKGVTPPTPEDFRYNNEDVLHAPYVANQGWYDITKTFDGKDNLLCGAATAGNMLHWWFDQNKEEIERYLKKYPEKQKIIFNNQELFDVRAAINTKDSQTNSKLFNYFRDKAFPNLSARQLGVMPDLVLDMFINGYYLNLGKTQSTDVNRPYQDKDKRGGIFDAVFNRGDQTTLLTARHDLKNKGLNEISDLIKQELSSGKALALSHTYANVRINHVINLWGADFDAEGNLIAIYVTDSDANSNIGMKKYKVGVNANGKVAISAKKIEGDNIGAQVLGLFTLSTGQDIWQKLSLEHHHHHH | 541 ng/µL | 0 ng/µL | 1030 ng/µL | 15 ng/µL
PRT-568 (protein) MANQEIRYSEATPSHITSVWTKGVTPPTQFIQNEDVLHAPYIANQGWYDITKTFNGKDDLLCGAATAGNMLHWWFDQNKTQIENYLKKHPEKQKINFNGEQMFDVKEAIDTKDSQTDSALFSYFKDKAFPYLSTKHLGVFPDHVIDMFINGYRLSLTNHGPTPVKRQTKDPRGGIFDAVFTRGDQSKLLTARHDFKEKTLNEISQLIKQELTEGKALGLSHTYANVRINHVINLWGADFNAEGNLEAIYVTDSDSNASIGMKKYYVGVNAAGHVAISAKEIEGDNIGAQVLGLFTLSTGQDIWQQTNLEHHHHHH | 880 ng/µL | 402 ng/µL | 0 ng/µL | 0 ng/µL
PRT-697 (protein) MTITSVWTKGVIPPTPEDFRYNNEDVLHAPYVPNQGWYDITKTFDGGDNLLCGAATAGNMLHWWFDQNKEEIERYLKKYPEKQKIIFNNQELFDVRAAINTKDSQTNSKLFNYFRDKAFPNLSARQLGVMPDLVLDMFINGYYLNLGKTQSTDVNRPYQDRDKRGGIFDHVFGRGDQTTLLTARHDLKNGGLNEISDLIKQELQSGKALALSHTYANVRINHVINLWGADFDAEGNLIAIYVTDSDANSSIGMKKYYVGVNANGKVAISAKKIEGDNIGAQVLGLFTLSTGQEIWQKLSLEHHHHHH | 701 ng/µL | 430 ng/µL | 221 ng/µL | 161 ng/µL
PRT-619 (protein) MQITTVWTKGVTPLTPEQFRYNNEDVIHAPYLAHQGWYDITKAFDGKDNLLCGAATAGNMLHWWFDQNKTEIEAYLSKHPEKQKIIFNNQELFDLKAAIDTKDSQTNSQLFNYFRDKAFPNLSARQLGVMPDLVLDMFINGYYLNVFKTQSTDVNRPYQDKDKRGGIFDAVFTRGDQTTLLTARHDLKNGGLEDISTIIKQELKNGRALALSHTYANVSISHVINLWGADFNAEGNLSAIYVTDSDANASIGMKKYFVGINAHGHVAISAKKIEGENIGAQVLGLFTLSSGKDIWQKLSLEHHHHHH | 140 ng/µL | 283 ng/µL | 102 ng/µL | 591 ng/µL
PRT-611 (protein) MQITSVWTKGVTPLTPEQFRYNNEDVIHAPYLAHQGWYDITKAFDGKDNLLCGAATAGNMLHWWFDQNKTEIEAYLSKHPEKQKIIFNNQELFDLKAAIDTKDSQTNSQLFNYFRDKAFPNLSARQLGVMPDLVLDMFINGYYLNVFKTQSTDVNRPYQDKDKRGGIFDAVFTRGDQTTLLTARYDLYNKGLNDISTIIKQELTEGRALALSHTYANVSISHVINLWGADFNAEGNLEAIYVTDSDANASIGMKKYFVGINAHGHVAISAKKIEGENIGAQVLGLFTLSSGKDIWQKLSLEHHHHHH | 924 ng/µL | 490 ng/µL | 0 ng/µL | 0 ng/µL
PRT-603 (protein) MQITTVWTKGVTPLTPEQFRYNNEDVIHAPYLAHQGWYDITKAFDGKDNLLCGAATAGNMLHWWFDQNKTEIEAYLSKHPEKQKIIFNNQELFDLKAAIDTKDSQTNSQLFNYFRDKAFPNLSARQLGVMPDLVLDMFINGYYLNVFKTQSTDVNRPYQDKDKRGGIFDAVFTRGDQTTLLTARHDLKNGGLNDISTIIKQELQSGRALALSHTYANVSISHVINLWGADFNAEGNLEAIYVTDSDANASIGMKKYFVGINAHGHVAISAKKIEGENIGAQVLGLFTLSSGKDIWQKLSLEHHHHHH | 965 ng/µL | 486 ng/µL | 0 ng/µL | 0 ng/µL
PRT-651 (protein) MQITSVWTKGVTPLTPEQFRYNNEDVIHAPYLAHQGWYDITKAFDGKDNLLCGAATAGNMLHWWFDQNKTEIEAYLSKHPEKQKIIFNNQELFDLKAAIDTKDSQTNSQLFNYFRDKAFGNLSARQLGVMPDLVLDMFINGYYLNVGKTQSTDVNRPYQTRDKRGGIFDAVFTRGDQTTLLTARHDLKNKGLNDISTIIKQELTEGRALALSHTYANVSISHVINLWGADFNAEGNLEAIYVTDSDANASIGMKKYFVGINAHGHVAISAKKIEGENIGAQVLGLFTLSSGKDIWQKLSLEHHHHHH | 542 ng/µL | 367 ng/µL | 168 ng/µL | 359 ng/µL
PRT-610 (protein) MQITSVWTKGVTPLTPEQFRYNNEDVIHAPYLAHQGWYDITKAFDGKDNLLCGAATAGNMLHWWFDQNKTEIEAYLSKHPEKQKIIFNNQELFDLKAAIDTKDSQTNSQLFNYFRDKAFPNLSARQLGVMPDLVLDMFINGYYLNVFKTQSTDVNRPYQDKDKRGGIFDAVFTRGDQTTLLTARHDLKNKGLNDISTIIKQELTEGRALALSHTYANVSISHVINLWGADFNAEGNLEAIYVTDSDANASIGMKKYYVGINAHGHVAISAYKIEGENIGAQVLGLFTLSSGKDIWQKLSLEHHHHHH | 688 ng/µL | 381 ng/µL | 0 ng/µL | 0 ng/µL
PRT-660 (protein) MQITSVWTKGVTPLTPEQFRYNNEDVIHAPYLAHQGWYDITKAFDGKDNLLCGAATAGNMLHWWFDQNKTEIEAYLSKHPEKQKIIFNNQELFDLRKAINTKDDQKESALFNYFRKKAFPNLSARQLGVMPDLVLDMFINGYYLNVFKTQSTDVNRPYQDKDKRGGIFDAVFTRGDQTTLLTARHDLKNKGLNDISTIIKQELTEGRALALSHTYANVSISHVINLWGADFNAEGNLEAIYVTDSDANASIGMKKYFVGINAHGHVAISAKKIEGENIGAQVLGLFTLSSGKDIWQKLSLEHHHHHH | 161 ng/µL | 320 ng/µL | 105 ng/µL | 668 ng/µL
PRT-663 (protein) MQITSVWTKGVTPPTPEQFRYNNEDVIHAPYLAHQGWYDITKTFDGKDNLLCGAATAGNMLHWWFDQNKTEIEAYLSKHPEKQKIIFNNQELFDLKEAINTKDSQTNSQLFNYFRDKAFPNLSARQLGVMPDLVLDMFINGYYLNVFKTQSTDVNRPYQDKDKRGGIFDAVFTRGDQTKLLTARHDLKNKGLNEISTLIKQELTEGKALALSHTYANVSISHVINLWGADFNAEGNLEAIYVTDSDANASIGMKKYFVGINASGHVAISAKKIEGENIGAQVLGLFTLSTGKDIWQKLSLEHHHHHH | 825 ng/µL | 456 ng/µL | 0 ng/µL | 0 ng/µL
